Test results reported in the DeepSol protein solubility set.

assay: soluble on expression in E. coli; label from the status in PepcDB or PDB records

Row | Sequence | soluble on expression in E. coli
1 | MATTLKPVDAVVVGFGWTGAILAKELTEAGLNVVALERGENRDTYPDGAYPNTLDELTYNTRGKLFQNLSKSTVSIRHGINDTALPYRQLSAFLPGDGVGGAGLHWSGVHFRIMPEELRLRSHYEERYGKKFIPEGMTIQDYGVSYEELEPHFDFAEKVFGTSGTAHTVKGQVVGKGNPFAADRSDDFPLPALRQVYSAQLFRKAAEELGLHPYDLPAANASGPWTNPYGVQMGPCNFCGFCSGYACYMYSKASPNLNILPALRQTPLFELRANCNVLKVNLDSDGRQATGVTYVDAQGREIVQPAKLVIISAFQFHNVRLLLLSGIGKPYDPRTGEGVVGKNFAYQNMATIKAFFDKDVHTNPFVGTGGGGVAVDDFNADNFDHGPLGFVGGSPMWVNQAGSKPIGGLAVPPGTPSWGSGWKQAVKDAYTHTVSMDAHGSNMTYRDNYLDLDPTYKDAYGQPLLRMTFDWKDNEIRMSRYVTEHMRKIAEAMNPKAISVSVKNFGDHFNTRVYQTTHLLGGAIMGSDPKTSVLNRYLQSWDVHNVFVMGASAFPQGTGYNPTGLVAALAYWSAKAIREQYLKNPGPLVQALEHHHHHH | not soluble
2 | MTPRIEVAAPKEPITINMNVKIEHEIIIKADKDVEELLETRSDLFLEHHHHHH | not soluble
3 | MERKWIKKKAHIVPTHAMYGLAQVLKDIGIDVISLVNYALNLHDYHYNGFEPGFSRYSKKEEVFRDLITLVKETRKVIDIYYSKYEVKEILGKINELIKELTEGNKLEHHHHHH | not soluble
4 | MVADRFSHVRGWVFDLDNTLYPPSARLFDQIERRMTDWVMTELRVVREEADRLRRHYWSTYGTTLAGLMAEHGVDPAPYLSHVHDISLDHLERDMILAARIRALPGRKIVYTNGCAPYAERVLEARGLANLFDAVYGVEHAGFRPKPDRAAFETVFAADRLAPGTAAMFEDDSRNLLAPHEMGMRTVHVAPEALPAPHIHHHTLDLSEFLALLQP | not soluble
5 | MSNVMDLNLIQTFLVVAEFQSYTKAAEQLGLTQPAVSAAIKRLEQVVDKQLFVKKGRGITLTSAAYQLLPQFEQAVSIIDNAIMEKKHFEVCCSEILLHIMSPIKNAIFYESPPEKYILFELLRQQKVDLVIDTVVTKDAAFVMEEAYEEKAVIICREQHPRIQGTLSKEQFYDETHCLFSGKWNNMSGFEQLAQETILER | not soluble
6 | SGRPLEGQPLRALDLYPEPAFLRSGKDPKSSPASSPSFAVLGPEVRSTGGQAGSRRRPSAPCSQDRAAAEGAPALLGGSPSSGSPGHPPGSAFGVEAGCRALNVSEHARGGFALGLPFGLSGGAYLFLLLDGAGDPKPTPEAPISSADGRAWFPSESSWQLPQLPAGSTSGSEPRARPGLGPRQLPTGPRDGAAGQGPGRGLTARLGREREIDCGPRQAGHGGTATDTGRAGSGARHRPPRDRGTPGLRTH | soluble
7 | MGSDKIHHHHHHMRTDNKLSGIIAKKHSFSVPLDYQQSPSEQINLFVRELSSVEHQNKELPYLVFFQGGPGFGAVRPVANTGWIKRALTQYRVLLLDQRGTGLSTPVSAESLAHLTSQQQAEYLSHFRSDNIIRDAELIRAKLSPDRPWSILGQSFGGFCVLRYLSAAPQGLKAAYITGGIPSLERSADEVYQATYQRVLAKNQDFFSRFSDARELANRLASHISEYEVLLSSGERLTVEMLQLLGINLGMEQGPEGVYYLLEQALIDTAQGVKVNPLFLHQFGQFLDYNTNPLFAVLHESIYCQNSASNWAAHRVREQYSQFNYHLGKDLLFTGEMVYPWMFDQFSQLQPLKEAAELLAAKSDWPALYDLEQLKANTVPVSAAIYSEDMFVEMQYSLETTKDVGSLKYWLTSEYEHNGIRMDGERVLDKLIALNTGRELR | not soluble
8 | MMPYILVFMVCIFLTSISSRKKIIPLLLSCLILSLFAGFRDKNIGSDTDFYPHWYISEIRYIHNLIDLITIETERNLDKGYLFLYWIASWIGNQ | not soluble
9 | RTDTIMVLHIPSSGKATLMSIPRDSYVEIPGYGMDKINASFTYGGAPLLTQTVENATGLRINHYAEIGMGGLANVVDAVGGIEVCPAEPIDDPLAGLNIAAGCQKVDGPTALGYVRTRHTALGDLDRVQRQREFFAALVNKVTS | not soluble
10 | MSLVELQEIFDVSYGSKLDLNKMSSFNPTINFVGRSGKNNGVTASVDLLKNTKPYPAGLLTVALGGSVLSTFLQNKPFYTAQNVAVLNPKTEMTEQQKLFYCAAIFANAYRFSACGREANRTLRQLFVPSLDEIPSWVESVNLNPSAGVTEPKLKESLDLPVVRQSKRLDEIFTIQNGIAATKLKEFEQRQKDTVVYIRPASTQARTLRSYIARDSVDEKHIFPCHTLFTSTNGEGSHTYSYVSTCEFVANSDVAVLTPIQSDMPIEVKLYYAKCITANRYLFSYGRKPKGEKLKSIMLPYFDQQEDFDYICRFIHTLLFSNNLEGHHHHHH | soluble
11 | MGSDKIHHHHHHCELDRDPEGKDFQQPYTSFVQTKQNRDGLYALLRNTENPRMHFYQELQSDMYCTTITDGNSLAPFVNWDLGILNDHGRADEDEVSGIAGYYFVYNRLNQQANAFVNNTEAALQNQVYKNSTEIANAKSFLAEGKVLQALAIWRLMDRFSFHESVTEVNSGAKDLGVILLKEYNPGYIGPRATKAQCYDYILSRLSEAIEVLPENRESVLYVSRDYAYALRARIYLALGEYGKAAADAKMVVDKYPLIGAADASEFENIYRSDANNPEIIFRGFASATLGSFTATTLNGAAPAGKDIKYNPSAVPFQWVVDLYENEDFRKSVYIAKVVKKDKGYLVNKFLEDKAYRDVQDKPNLKVGARYFSVAEVYLILVESALQTGDTPTAEKYLKALSKARGAEVSVVNMEALQAERTRELIGEGSRLRDMVRWSIPNNHDAFETQPGLEGFANTTPLKAQAPVGFYAYTWEFPQRDRQTNPQLIKNWPI | not soluble
12 | MGSDKIHHHHHHMKKILFLFLAACFFFSCEKETIVIPQQHAGRTVLAFFWADNSLNSSLRDNIQTMMQGLQAMKDSAALLVYWDGEASDISWPEPCIVEYVTNGQGGINSLSKGTIDAMMADKNTSIYDLIGIGNIRKKYPPQTSTEKTVMQTVIGDMMSAYPSESYGIIFGSHGSGWLPTITGTRSIGQDGGRYSSDTALIPELAEVLRTVNPQKFDFVLFDACMMGCAEVYYELKDAARYCIASVLDIPAAGFPYASVMPYLYENAIKDYLEPICKDYIDYYNYIGWGTISAVDCNQMEGLAEAVRSVILSNQDSLKNVDTADLQQYGKGSSSFKGYAYDMLQFIGKLCGGMAPDDFTQQLKKTVIYTDYTHDPTSSLYRIDGDNYSGMGMYIPNSFTTPKYLLWNNYFKSSIAWYHASGWAETESIWGN | not soluble
13 | ENAFKRRRCGVCEVCQQPECGKCKACKDMVKFGGSGRSKQACQERRCPN | soluble
14 | MDLDKLVHQPTRLELFAYLYRHGESSFGDLTDELDLTEGNLSSHLQRMEDADAVEVRKEFVDKRPHTTAVLTEDGEAMFEDHVQTLQGLIDGLELEHHHHHH | not soluble
15 | MDLIAPEDVVVTLSHAGYAKRQPVSAYRAQRRGGRGRSAASTKEEDFIDQLWLVNTHDTLLTFTSSGKVFWLPVHQLPEAGSNARGRPIINWIPLESGERVQAVLPVREYADNRYVFMATRNGTVKKTPLSEFAFRLARGKIAINLDEGDALVGVALTDGDRDVLLFASNGKTVRFGESTVRSMGRTATGVRGIRLAKGEEVVSLIVSERAGGVEDEVEDESAEEVVETTDGAEPAVIDVADNGDVAYILTATENGYGKRTPLAEYPRKGRGTQGVIGIQTTERNGKLVRAVLLGSTDEVMLISDGGTLVRTRGSEISRVGRNTQGVTLIRLSKGEKLQAVERLDASLEEPEDVVDEAVAITSDAPPAEG | soluble
16 | SRYAIYWTPEDGPLARFGRSWLGWDPVTAEPAAHPAIEDLPRDVALITQAPRKYGLHATLKPPFRLADGADVTDLHAAVVALCPYLAPVTLPGLKLDRIGGFLALVPAGNEEPLADLAAEVMRALDGFRAPLTEAELARRRPERLTPRQRGHLADWGYPYVLDDYRFHVTLTGELPEAELAEVVTVLEPLLEPILAEPVRIASLCLFAEASDGRFRMLERLPIT | not soluble
